How the values were obtained:
[1] = target: mouse Transferrin Receptor overexpressed on Hek 293 cells (mouse) (UniProt Q62351); assay: TfR binding EC50, cell-based assay (repeats Table 7)
[2] = target: rmTfR (119-763) (mouse) (UniProt Q62351); assay: Biacore SPR, antibody captured by anti-human IgG Fc, rmTfR (119-763) in solution
[3] = target: mouse Transferrin Receptor overexpressed on Hek 293 cells (mouse) (UniProt Q62351); assay: mTfR binding cell-based assay
[4] = target: mouse Transferrin Receptor overexpressed on Hek 293 cells (mouse) (UniProt Q62351); assay: binding signal on TfR against 'Ab, ng/ml'; format not stated for this figure, Examples 4 and 9 describe the cell-based Hek293/mTfR MSD-ECL binding assay
[5] = target: mouse Transferrin Receptor overexpressed on Hek 293 cells (mouse) (UniProt Q62351); assay: cell-based MSD-ECL binding, Hek293/mTfR cells
[6] = target: T1, TNF (mouse, UniProt P06804 80-235); assay: cell-based or functional assay
T1 sequence (looked up): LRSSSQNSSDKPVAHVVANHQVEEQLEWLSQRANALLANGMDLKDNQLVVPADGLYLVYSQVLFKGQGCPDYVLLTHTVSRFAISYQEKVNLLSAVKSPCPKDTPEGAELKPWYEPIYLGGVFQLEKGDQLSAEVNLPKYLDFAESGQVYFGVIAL

[7] = target: T2, rmTfR (123-763) (mouse, UniProt Q62351 123-763); assay: Biacore SPR, antibody captured by anti-human IgG Fc, rmTfR (123-763) in solution
T2 construct: range 123-763; also called recombinant mouse transferrin receptor 123-763
Experimental: (§1) The BIACORE assay (Biacore, Inc, Piscataway, N.J.) was used to determine the affinity of antibodies or DVD-Ig proteins with kinetic measurements of on-rate and off-rate constants. Binding of antibodies or DVD-Ig protein to a target antigen (for example, a purified recombinant target antigen) was determined by surface plasmon resonance-based measurements with a Biacore® 1000 or 3000 instrument (Biacore® AB, Uppsala, Sweden) using running HBS-EP (10 mM HEPES [pH 7.4], 150 mM NaCl, 3 mM EDTA, and 0.005% surfactant P20) at 25° C. All chemicals were obtained from Biacore® AB (Uppsala, Sweden) or otherwise from a different source as described in the text. For example, approximately 5000 RU of goat anti-human IgG, (Fcγ), fragment specific polyclonal antibody (Pierce Biotechnology Inc, Rockford, Ill.) diluted in 10 mM sodium acetate (pH 4.5) was directly immobilized across a CM5 research grade biosensor chip using a standard amine coupling kit according to manufacturer's instructions and procedures at 25 μg/ml. Unreacted moieties on the biosensor surface were blocked with ethanolamine. Modified carboxymethyl dextran surface in flowcell 2 and 4 was used as a reaction surface. Unmodified carboxymethyl dextran without goat anti-human IgG in flow cell 1 and 3 was used as the reference surface. For kinetic analysis, rate equations derived from the 1:1 Langmuir binding model were fitted simultaneously to association and dissociation phases of all eight injections (using global fit analysis) with the use of BIAevaluation 4.0.1 software. Purified antibodies or DVD-Ig proteins were diluted in HEPES-buffered saline for capture across goat anti-human IgG specific reaction surfaces. Antibodies or DVD-Ig proteins to be captured as ligands (25 μg/ml) were injected over reaction matrices at a flow rate of 5 μl/minute. The association and dissociation rate constants, kon (M⁻¹ s⁻¹) and koff (s⁻¹) were determined under a continuous flow rate of 25 μl/minute. Rate constants were derived by making kinetic binding measurements at different antigen concentrations ranging from 10-200 nM. The equilibrium dissociation constant (M) of the reaction between antibodies or DVD-Ig proteins and the target antigen was then calculated from the kinetic rate constants by the following formula: KD=koff/kon. Binding was recorded as a function of time and kinetic rate constants were calculated.

[8] = target: T3, mouse Transferrin Receptor overexpressed on Hek 293 cells (mouse, UniProt Q62351 1-763); assay: mTfR binding cell-based assay
T3 construct: whole, on cells; also called mTfR; Hek293/mTfR
Experimental: (§2) Meso-scale Discovery (MSD) Electrochemiluminescence (ECL) assays to screen for antibodies or DVD-Ig proteins that bind a desired target antigen expressed on the cell surface were performed as follows: Hek 293 cells overexpressing mouse Transferrin Receptor were added onto MSD 96-well plates (MSD Cat# L11 XB-3, lot#2290-EA). The plates which were blocked using blocking buffer (30% FBS Serum (Hyclone) in PBS) at 37° C. for 1 hour. After incubating at room temperature (RT) for 30 minutes with mild agitation, plates were washed with DPBS 3 times and Abs/DVD-Ig proteins (10,000 ng/ml) were added. After incubating for 1 hour at RT, plates were washed 3 times with DPBS and 25 μl of Goat anti-human Sulfo TAG (MSD Cat# R32AC-, Lot# W001162) at 1 μg/ml was added. Following incubation at RT for 1 hour, plates were washed and MSD read buffer was added before reading on a MSD SECTOR Imager 6000. EC50 values were obtained using Xlfit4 software package.

[9] = target: T3, mouse Transferrin Receptor …; assay: cell-based MSD-ECL binding, Hek293/mTfR cells
Experimental: as §2

[10] = target: T3, mouse Transferrin Receptor …; assay: 293/mTfR cell-based assay
Experimental: as §2

[11] = target: T2, rmTfR (123-763); assay: Biacore SPR, DVD-Ig captured by anti-human IgG Fc, rmTfR (123-763) in solution
Experimental: as §1, with “Purified antibodies or DVD-Ig proteins were diluted in HEPES-buffered saline for capture across goat anti-human IgG specific reaction surfaces. Antibodies or DVD-Ig proteins to be captured as ligands (25 μg/ml) were injected over reaction matrices at a flow rate of 5 μl/minute.” left out, “Rate constants were derived by making kinetic binding measurements at different antigen concentrations ranging from 10-200 nM.” left out

[12] = target: T3, mouse Transferrin Receptor …; assay: EC50 column of Table 13, taken as the cell-based mTfR binding assay
Experimental: as §2

T2 sequence (Q62351 123-763): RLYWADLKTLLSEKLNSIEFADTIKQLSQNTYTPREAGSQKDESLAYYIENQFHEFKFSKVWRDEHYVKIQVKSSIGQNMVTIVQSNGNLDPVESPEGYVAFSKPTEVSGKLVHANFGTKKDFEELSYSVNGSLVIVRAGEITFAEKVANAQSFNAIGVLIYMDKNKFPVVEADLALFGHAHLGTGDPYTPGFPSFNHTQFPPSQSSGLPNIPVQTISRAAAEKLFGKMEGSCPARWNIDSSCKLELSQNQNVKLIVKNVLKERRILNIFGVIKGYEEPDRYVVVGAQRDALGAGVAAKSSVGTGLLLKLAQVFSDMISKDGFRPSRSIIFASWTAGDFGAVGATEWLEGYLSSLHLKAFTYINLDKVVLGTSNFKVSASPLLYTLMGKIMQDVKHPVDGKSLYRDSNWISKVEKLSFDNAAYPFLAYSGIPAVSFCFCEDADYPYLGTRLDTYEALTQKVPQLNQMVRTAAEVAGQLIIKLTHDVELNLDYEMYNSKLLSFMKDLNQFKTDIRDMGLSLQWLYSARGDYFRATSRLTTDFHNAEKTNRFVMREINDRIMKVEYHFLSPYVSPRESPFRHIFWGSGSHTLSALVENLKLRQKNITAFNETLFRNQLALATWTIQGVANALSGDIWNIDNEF
Sequence of rmTfR (119-763) (mouse) (Q62351 119-763): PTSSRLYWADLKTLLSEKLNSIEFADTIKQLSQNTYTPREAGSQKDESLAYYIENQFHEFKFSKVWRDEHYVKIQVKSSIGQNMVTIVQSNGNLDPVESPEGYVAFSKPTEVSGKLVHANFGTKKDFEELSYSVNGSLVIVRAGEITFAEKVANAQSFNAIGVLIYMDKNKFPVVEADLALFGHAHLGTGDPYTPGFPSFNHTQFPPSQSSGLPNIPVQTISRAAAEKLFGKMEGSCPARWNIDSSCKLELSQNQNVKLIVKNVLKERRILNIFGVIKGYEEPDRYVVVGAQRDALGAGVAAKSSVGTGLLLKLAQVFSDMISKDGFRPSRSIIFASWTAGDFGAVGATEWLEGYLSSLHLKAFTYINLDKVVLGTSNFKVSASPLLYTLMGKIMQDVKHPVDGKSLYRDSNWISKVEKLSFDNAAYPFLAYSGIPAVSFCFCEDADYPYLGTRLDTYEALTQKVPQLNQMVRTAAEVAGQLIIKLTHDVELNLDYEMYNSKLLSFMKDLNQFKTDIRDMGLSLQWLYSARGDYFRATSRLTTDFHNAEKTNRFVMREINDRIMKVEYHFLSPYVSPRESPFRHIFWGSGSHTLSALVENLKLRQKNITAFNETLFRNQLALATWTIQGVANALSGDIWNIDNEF
Sequence of mouse Transferrin Receptor overexpressed on Hek 293 cells (mouse) (Q62351 whole entry): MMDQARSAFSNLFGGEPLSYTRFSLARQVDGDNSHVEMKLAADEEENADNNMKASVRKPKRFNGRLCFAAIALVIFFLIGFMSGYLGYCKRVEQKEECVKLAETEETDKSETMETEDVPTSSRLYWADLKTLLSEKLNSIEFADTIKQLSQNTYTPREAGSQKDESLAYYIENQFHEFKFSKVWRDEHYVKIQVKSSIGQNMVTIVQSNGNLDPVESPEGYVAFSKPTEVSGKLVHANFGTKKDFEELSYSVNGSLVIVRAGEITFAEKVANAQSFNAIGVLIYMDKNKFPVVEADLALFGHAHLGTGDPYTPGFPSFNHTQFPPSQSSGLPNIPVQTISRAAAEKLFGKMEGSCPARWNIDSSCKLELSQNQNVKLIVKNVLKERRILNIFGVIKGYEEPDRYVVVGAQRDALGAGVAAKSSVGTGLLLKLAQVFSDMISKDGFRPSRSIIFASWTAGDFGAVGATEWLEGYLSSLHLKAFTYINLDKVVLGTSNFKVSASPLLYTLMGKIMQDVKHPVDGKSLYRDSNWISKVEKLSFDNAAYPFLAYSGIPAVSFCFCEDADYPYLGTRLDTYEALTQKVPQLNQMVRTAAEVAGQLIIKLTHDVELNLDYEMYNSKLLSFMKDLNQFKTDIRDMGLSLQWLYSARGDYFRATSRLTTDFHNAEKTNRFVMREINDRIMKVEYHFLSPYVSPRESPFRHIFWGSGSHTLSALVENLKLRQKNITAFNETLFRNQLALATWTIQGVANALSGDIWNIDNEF
T3 sequence (Q62351 whole entry): as above

B1: AB221 (antibody, from another filing, V domains shown)
VH: EVQLVESGGGLVQPGNSLTLSCVASGFTFSNYGMHWIRQAPKKGLEWIAMIYYDSSKMNYADTVKGRFTISRDNSKNTLYLEMNSLRSEDTAMYYCAVPTSHYVVDVWGQGVSVTVSS
VL: DIQMTQSPASLSASLEEIVTITCQASQDIGNWLAWYQQKPGKSPQLLIYGATSLADGVPSRFSGSRSGTQFSLKISRVQVEDIGIYYCLQAYNTPWTFGGGTKLELKR
- EC50 [1]: 0.1 nM
- Kd [2]: 5 nM
- koff [2]: 0.000181 s⁻¹
- kon [2]: 39400 M⁻¹ s⁻¹
- EC50 [3]: 0.12 nM
- EC50 (read off the curve) [4]: 0.03 µg/mL
- EC50 [5]: 0.1 nM

B2: anti-TNF antibody 8C11 (antibody, V domains shown)
VH: EFQLQQSGPELVKPGASVRISCKASGYSFTDYNMNWVKQSNGKSLEWVGVINPNYGSSTYNQKFKGKATLTVDQSSSTAYMQLNSLTSEDSAVYYCARKWGQLGRGFFDVWGTGTTVTVSS
VL: QIVLSQSPAILSASPGEKVTMTCRASSSVSYMHWFQQKPGSSPKPWIYATSNLASGVPARFSGSGSGTSYSLTISRVEAEDAATYYCQQWSSSPLTFGAGTKLELKR
- L929 TNF Neutralization assay IC50 [6]: 5 nM

B3: AB402 (antibody, from another filing, V domains shown)
VH: EVQLVESGGGLVQPGGSLRLSCAASGFTFSNYGMHWIRQAPGKGLEWIAMIYYDSSKMNYADTVKGRFTISRDNAKNSLYLQMNSLRAEDTAVYYCAVPTSHYVVDVWGQGTTVTVSS
VL: AIQMTQSPSSLSASVGDRVTITCQASQDIGNWLAWYQQKPGKSPKLLIYGATSLADGVPSRFSGSRSGTDFTLTISSLQPEDFATYYCLQAYNTPWTFGGGTKVEIKR
- EC50 [3]: 0.06 nM
- Kd [7]: 3.7 nM
- koff [7]: 6.12e-05 s⁻¹
- kon [7]: 16400 M⁻¹ s⁻¹
- EC50 [5]: 0.06 nM

B4: AB403 (antibody, V domains shown)
VH: EVQLVESGGGLVQPGGSLRLSCAASGFTFSNYGMHWIRQAPGKGLEWIAMIYYDSSKMNYADTVKGRFTISRDNAKNSLYLQMNSLRAEDTAVYYCAVPTSHYVVDVWGQGTTVTVSS
VL: EIVMTQSPATLSVSPGERATLSCQASQDIGNWLAWYQQKPGQSPRLLIYGATSLADGVPARFSGSRSGTEFTLTISSLQSEDFAVYYCLQAYNTPWTFGGGTKVEIK
notes: also called humanized variant of AB221
- EC50 [8]: 0.09 nM
- EC50 [9]: 0.09 nM
- Kd [7]: 3.8 nM
- koff [7]: 8.39e-05 s⁻¹
- kon [7]: 22000 M⁻¹ s⁻¹

B5: muTfR(AB405)-SL-muTNF(8C11) (bispecific antibody)
VH: QVQLVQSGAEVKKPGASVKVSCKASGFTFSNYGMHWIRQAPGQGLEWIAMIYYDSSKMNYADTVKGRFTITRDNSTNTLYMELSSLRSEDTAVYYCAVPTSHYVVDVWGQGTTVTVSSASTKGPEFQLQQSGPELVKPGASVRISCKASGYSFTDYNMNWVKQSNGKSLEWVGVINPNYGSSTYNQKFKGKATLTVDQSSSTAYMQLNSLTSEDSAVYYCARKWGQLGRGFFDVWGTGTTVTVSS
VL: EIVMTQSPATLSVSPGERATLSCQASQDIGNWLAWYQQKPGQSPRLLIYGATSLADGVPARFSGSRSGTEFTLTISSLQSEDFAVYYCLQAYNTPWTFGGGTKVEIKRTVAAPSVFIFPPQIVLSQSPAILSASPGEKVTMTCRASSSVSYMHWFQQKPGSSPKPWIYATSNLASGVPARFSGSGSGTSYSLTISRVEAEDAATYYCQQWSSSPLTFGAGTKLELK
notes: DVD-Ig; outer AB405 (TfR), inner 8C11 (TNF); also called TfR(AB405)-SL-TNF DVD-Ig protein; copies: 2 + 2
- EC50 [10]: 3.76 nM
- L929 TNF Neutralization assay IC50 [6]: 4.94 nM

B6: AB405 (antibody, from another filing, V domains shown)
VH: QVQLVQSGAEVKKPGASVKVSCKASGFTFSNYGMHWIRQAPGQGLEWIAMIYYDSSKMNYADTVKGRFTITRDNSTNTLYMELSSLRSEDTAVYYCAVPTSHYVVDVWGQGTTVTVSS
VL: EIVMTQSPATLSVSPGERATLSCQASQDIGNWLAWYQQKPGQSPRLLIYGATSLADGVPARFSGSRSGTEFTLTISSLQSEDFAVYYCLQAYNTPWTFGGGTKVEIKR
- EC50 [1]: 13.6 nM
- EC50 [3]: 13.6 nM
- EC50 [5]: 13.6 nM

B7: muTNF(8C11)-GS-muTfR(AB221) (bispecific antibody)
VH: EFQLQQSGPELVKPGASVRISCKASGYSFTDYNMNWVKQSNGKSLEWVGVINPNYGSSTYNQKFKGKATLTVDQSSSTAYMQLNSLTSEDSAVYYCARKWGQLGRGFFDVWGTGTTVTVSSGGGGSGGGGSEVQLVESGGGLVQPGNSLTLSCVASGFTFSNYGMHWIRQAPKKGLEWIAMIYYDSSKMNYADTVKGRFTISRDNSKNTLYLEMNSLRSEDTAMYYCAVPTSHYVVDVWGQGVSVTVSS
VL: QIVLSQSPAILSASPGEKVTMTCRASSSVSYMHWFQQKPGSSPKPWIYATSNLASGVPARFSGSGSGTSYSLTISRVEAEDAATYYCQQWSSSPLTFGAGTKLELKRGGSGGGGSGDIQMTQSPASLSASLEEIVTITCQASQDIGNWLAWYQQKPGKSPQLLIYGATSLADGVPSRFSGSRSGTQFSLKISRVQVEDIGIYYCLQAYNTPWTFGGGTKLELK
notes: DVD-Ig; outer 8C11 (TNF), inner AB221 (TfR); also called 8C11-GS-AB221 DVD-Ig protein; TNF-GS-AB221; copies: 2 + 2
- EC50 [10]: 1.68 nM
- L929 TNF Neutralization assay IC50 [6]: 0.59 nM

B8: DVD2360 (bispecific antibody)
VH: EVQLVESGGGLVQPGGSLRLSCAASGFTFSNYGMHWIRQAPGKGLEWIAMIYYDSSKMNYADTVKGRFTISRDNAKNSLYLQMNSLRAEDTAVYYCAVPTSHYVVDVWGQGTTVTVSSASTKGPEVQLLESGGGLVQPGGSLRLSCAASGFTFSNYGMSWVRQAPGKGLEWVASIRSGGGRTYYSDNVKGRFTISRDNSKNTLYLQMNSLRAEDTAVYYCVRYDHYSGSSDYWGQGTLVTVSS
VL: EIVMTQSPATLSVSPGERATLSCQASQDIGNWLAWYQQKPGQSPRLLIYGATSLADGVPARFSGSRSGTEFTLTISSLQSEDFAVYYCLQAYNTPWTFGGGTKVEIKRTVAAPDVVMTQSPLSLPVTPGEPASISCKSSQSLLDSDGKTYLNWLLQKPGQSPQRLIYLVSKLDSGVPDRFSGSGSGTDFTLKISRVEAEDVGVYYCWQGTHFPRTFGQGTKVEIK
notes: DVD-Ig
- Kd [11]: 1.7 nM
- koff [11]: 4.8e-05 s⁻¹
- kon [11]: 28000 M⁻¹ s⁻¹
- EC50 [9]: 0.15 nM

B9: DVD2671 (bispecific antibody)
VH: EVQLLESGGGLVQPGGSLRLSCAASGFTFSNYGMSWVRQAPGKGLEWVASIRSGGGRTYYSDNVKGRFTISRDNSKNTLYLQMNSLRAEDTAVYYCVRYDHYSGSSDYWGQGTLVTVSSASTKGPSVFPLAPEVQLVESGGGLVQPGNSLTLSCVASGFTFSNYGMHWIRQAPKKGLEWIAMIYYDSSKMNYADTVKGRFTISRDNSKNTLYLEMNSLRSEDTAMYYCAVPTSHYVVDVWGQGVSVTVSS
VL: DVVMTQSPLSLPVTPGEPASISCKSSQSLLDSDGKTYLNWLLQKPGQSPQRLIYLVSKLDSGVPDRFSGSGSGTDFTLKISRVEAEDVGVYYCWQGTHFPRTFGQGTKVEIKRTVAAPDIQMTQSPASLSASLEEIVTITCQASQDIGNWLAWYQQKPGKSPQLLIYGATSLADGVPSRFSGSRSGTQFSLKISRVQVEDIGIYYCLQAYNTPWTFGGGTKLELK
notes: DVD-Ig; also called AbetaLSTfR
- EC50 [12]: 1.2 nM
- EC50 [9]: 1.2 nM

From patent US20160002343A1 (AbbVie / Abbott, published 2016)
